This sample holds only a part of the variants without activity.
Assays:
biotinyl-Val-oxazolone = assay: self-aminoacylation, catalytic enhancement (BVO) (fold over background); higher = more active; k-Seq, kA / k0A0; sequences stand for … in GGGAAUGGAUCCACAUCUACGAAUUC…UUCACUGCAGACUUGACGAAGCUG
Procedure, shortened: (§1)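 Catalytic enhancement equals the median kA over the uncatalyzed rate, the latter read from the low-activity peak of a bimodal Gaussian fit. Values of kA came from fitting each sequence's fraction reacted to a pseudo-first-order model, with 1000 bootstraps. Reacted RNA was captured with streptavidin and quantified by triplicate qPCR and Illumina sequencing after 90 minutes at room temperature with 2–1250 μM biotinyl-aminoacyl-oxazolone and 0.43 μM mutagenized RNA pools bearing a 21-nt variable region.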

biotinyl-Phe-oxazolone = assay: self-aminoacylation, catalytic enhancement (BFO) (fold over background); higher = more active; k-Seq, kA / k0A0; sequences stand for … in GGGAAUGGAUCCACAUCUACGAAUUC…UUCACUGCAGACUUGACGAAGCUG
Procedure, shortened: as §1

biotinyl-Leu-oxazolone = assay: self-aminoacylation, catalytic enhancement (BLO) (fold over background); higher = more active; k-Seq, kA / k0A0; sequences stand for … in GGGAAUGGAUCCACAUCUACGAAUUC…UUCACUGCAGACUUGACGAAGCUG
Procedure, shortened: as §1

biotinyl-Ile-oxazolone = assay: self-aminoacylation, catalytic enhancement (BIO) (fold over background); higher = more active; k-Seq, kA / k0A0; sequences stand for … in GGGAAUGGAUCCACAUCUACGAAUUC…UUCACUGCAGACUUGACGAAGCUG
Procedure, shortened: as §1

biotinyl-Trp-oxazolone = assay: self-aminoacylation, catalytic enhancement (BWO) (fold over background); higher = more active; k-Seq, kA / k0A0; sequences stand for … in GGGAAUGGAUCCACAUCUACGAAUUC…UUCACUGCAGACUUGACGAAGCUG
Procedure, shortened: as §1

biotinyl-Met-oxazolone = assay: self-aminoacylation, catalytic enhancement (BMO) (fold over background); higher = more active; k-Seq, kA / k0A0; sequences stand for … in GGGAAUGGAUCCACAUCUACGAAUUC…UUCACUGCAGACUUGACGAAGCUG
Procedure, shortened: as §1

Sequence | self-aminoacylation (biotinyl-Val-oxazolone) | self-aminoacylation (biotinyl-Phe-oxazolone) | self-aminoacylation (biotinyl-Leu-oxazolone) | self-aminoacylation (biotinyl-Ile-oxazolone) | self-aminoacylation (biotinyl-Trp-oxazolone) | self-aminoacylation (biotinyl-Met-oxazolone)
CUACUGCAAACUAUCGGUCUG [Fam1A.1 aminoacylation ribozyme variant] | 1.12 | 1.14 | 1.17 | 1.02 | 1.18 | 0.824
AUUCACCUAGGUUAUAGGGUG [Fam2.2 aminoacylation ribozyme variant] | 2.11 | 14.1 | 4 | 2.23 | 3.5 | 3.65
AUUCACCUAGGACAUCGGUUG [Fam2.2 aminoacylation ribozyme variant] | 1.03 | 2.89 | 1.28 | 0.888 | 0.663 | 0.919
AUUCACCUAGGCCAUCGGGUG [Fam2.2 aminoacylation ribozyme variant] | 3.45 | 28.6 | 5.51 | 3.04 | 4.09 | 4.47
UUUCACCUAGGUCAUCGGAUG [Fam2.2 aminoacylation ribozyme variant] | 1.36 | 0.842 | 0.998 | 1.1 | 1.12 | 0.898
AUUCACCUAGGUCAUUGGGGG [Fam2.2 aminoacylation ribozyme variant] | 2.06 | 1.27 | 2.77 | 2.45 | 3.03 | 2.67
AUUACCCCGGUCAUCUAGUGA [Fam2.1 aminoacylation ribozyme variant] | 3.96 | 47.1 | 8.24 | 4.31 | 8.95 | 7.8
UCACACUUCAAGCAAUCGAUC [Fam1B.1 aminoacylation ribozyme variant] | 0.808 | 1.49 | 0.468 | 0.589 | 0.732 | 0.501
CUACUCCAAACAAGCGGUCUG [Fam1A.1 aminoacylation ribozyme variant] | 1.14 | 2.15 | 0.802 | 1.2 | 0.584 | 1.13
CGACUUCAAACAGUCGGUCUG [Fam1A.1 aminoacylation ribozyme variant] | 1.84 | 10 | 1.63 | 1.83 | 1.98 | 1.71
AUUAACUUAGGUCAUCGGGUG [Fam2.2 aminoacylation ribozyme variant] | 2.59 | 28.7 | 4.73 | 2.79 | 4.85 | 4.59
AAGUUUGCUCAUAGUCCCAAG [Fam3.1 aminoacylation ribozyme variant] | 1.06 | 1.29 | 0.902 | 0.902 | 0.793 | 0.856
AGUCACCUAGCUCAUCGGGUG [Fam2.2 aminoacylation ribozyme variant] | 3.12 | 13.9 | 2.79 | 2.6 | 2.81 | 2.42
AUUACCCUGGUCACUGAGUGA [Fam2.1 aminoacylation ribozyme variant] | 2.75 | 10.5 | 3.91 | 2.75 | 4.62 | 3.91
AUCCACCUAGGUCAUCCGGUG [Fam2.2 aminoacylation ribozyme variant] | 6.56 | 46.1 | 7.31 | 5.53 | 7.83 | 7.38
CUACGUCAAACAAUCGGUCUC [Fam1A.1 aminoacylation ribozyme variant] | 1.04 | 1.24 | 0.765 | 0.998 | 1.32 | 1.09
CGACUUCAAACAAUCCGUCUG [Fam1A.1 aminoacylation ribozyme variant] | 1.18 | 2.5 | 1.07 | 1.27 | 1.72 | 1.23
CCACACUUCAAUCAAUCGGUA [Fam1B.1 aminoacylation ribozyme variant] | 0.849 | 0.825 | 0.609 | 0.79 | 0.739 | 0.749
AUUACCCCGGGCAUCGAGUGA [Fam2.1 aminoacylation ribozyme variant] | 4.03 | 39.4 | 8.03 | 3.78 | 8.11 | 5.45
CCACGCUUCAAGCAAUCGGAC [Fam1B.1 aminoacylation ribozyme variant] | 0.666 | 1.87 | 0.696 | 0.794 | 1.24 | 0.64
AUUACUCUGGUCAUCUAGUGA [Fam2.1 aminoacylation ribozyme variant] | 4.34 | 42.8 | 9.74 | 4.55 | 11.4 | 9.64
CAACAGUUCAAGCAAUCGGUC [Fam1B.1 aminoacylation ribozyme variant] | 1.15 | 4.54 | 1.38 | 1.22 | 3.42 | 1.28
CUACUUCGAACAAUCGGACUG [Fam1A.1 aminoacylation ribozyme variant] | 0.502 | 0.493 | 0.65 | 0.679 | 0.492 | 0.593
UUUACCCUGGUCAUCGAGUGA [Fam2.1 aminoacylation ribozyme variant] | 27 | 428 | 60.9 | 24.6 | 71.3 | 68.9

Sequence | self-aminoacylation (biotinyl-Val-oxazolone) | self-aminoacylation (biotinyl-Phe-oxazolone) | self-aminoacylation (biotinyl-Leu-oxazolone) | self-aminoacylation (biotinyl-Ile-oxazolone) | self-aminoacylation (biotinyl-Trp-oxazolone) | self-aminoacylation (biotinyl-Met-oxazolone)
AUUCCCCUAGGUCAUAGGGUG [Fam2.2 aminoacylation ribozyme variant] | 3.08 | 17.1 | 6.57 | 3.38 | 4.78 | 4.99
GAGUUAGCUAAUAGUCGCAAG [Fam3.1 aminoacylation ribozyme variant] | 1.64 | 2.62 | 2.12 | 2.14 | 2.62 | 1.5
AUUCAACUAGGUCCUCGGGUG [Fam2.2 aminoacylation ribozyme variant] | 3.32 | 35.7 | 7.66 | 3.44 | 5.55 | 5.22
CUAGUUCAAACAAUCGGUCUU [Fam1A.1 aminoacylation ribozyme variant] | 1.01 | 5.06 | 1.26 | 1.14 | 3.27 | 1.25
CCACAAUUCAAGCAAUCUGUC [Fam1B.1 aminoacylation ribozyme variant] | 0.746 | 0.965 | 0.558 | 0.576 | 0.559 | 0.524
AUUACCCUCGACAUCGAGUGA [Fam2.1 aminoacylation ribozyme variant] | 5.56 | 83 | 12.7 | 4.58 | 14.5 | 11.5
UUUACCCUGGUCAUCGAGUAA [Fam2.1 aminoacylation ribozyme variant] | 5.3 | 30.5 | 11.7 | 4.45 | 11.8 | 13.9
CUACUUCAAACGAUCGGUCUG [Fam1A.1 aminoacylation ribozyme variant] | 0.763 | 1.42 | 0.68 | 0.65 | 1.31 | 0.677
AAGAUUGCUAAUGGUCGCAAG [Fam3.1 aminoacylation ribozyme variant] | 1.14 | 1.11 | 1.07 | 1.21 | 1.06 | 1.51
AUUACCCCGGUCAUCGAGUUA [Fam2.1 aminoacylation ribozyme variant] | 0.938 | 1.74 | 1.16 | 1.17 | 1.01 | 1.41
AUGUUUGCUAAUAGUCGAAAG [Fam3.1 aminoacylation ribozyme variant] | 1.11 | 8.7 | 1.07 | 1.28 | 2.94 | 1.08
AUGCACGUAGGUCAUCGGGUG [Fam2.2 aminoacylation ribozyme variant] | 3.89 | 45.4 | 4.72 | 3.52 | 5.33 | 4.47
CCACACUUCAAGCAUUCGGUG [Fam1B.1 aminoacylation ribozyme variant] | 5.97 | 68.5 | 11 | 5.54 | 7.88 | 8.89
AAGUUUUCGAAUAGUCGCAAG [Fam3.1 aminoacylation ribozyme variant] | 1.81 | 3.28 | 1.86 | 2.14 | 2.24 | 1.82
AAGUUUCCUAAUAGACGCAAG [Fam3.1 aminoacylation ribozyme variant] | 0.805 | 1.32 | 0.671 | 0.82 | 0.895 | 0.632
AUUCCCCUGGUCAUCGAGUUA [Fam2.1 aminoacylation ribozyme variant] | 1.36 | 1.25 | 1.19 | 1.33 | 1.08 | 1.09
AAGUUUGCUGGUAGUCGCAAG [Fam3.1 aminoacylation ribozyme variant] | 0.86 | 1.12 | 0.96 | 0.97 | 0.864 | 0.778
GAGUUUGCUACUAGUCGCAAG [Fam3.1 aminoacylation ribozyme variant] | 1.47 | 1.59 | 1.66 | 1.31 | 1.99 | 1.04
AGUCACCUAGGUAAUCGGGUG [Fam2.2 aminoacylation ribozyme variant] | 2.75 | 25.4 | 3.37 | 3.27 | 3.64 | 3.4
GUUCACCAAGGUCAUCGGGUG [Fam2.2 aminoacylation ribozyme variant] | 4.45 | 64.7 | 8.83 | 4.16 | 6 | 6.5
AAGUUUGCUAAUACUGGCAAG [Fam3.1 aminoacylation ribozyme variant] | 0.571 | 0.739 | 0.696 | 0.642 | 0.458 | 0.481
AUUACCCAGGUAAUCGAGUGA [Fam2.1 aminoacylation ribozyme variant] | 3.56 | 44.6 | 8.05 | 3.26 | 9.28 | 7.57
CUACUUCAAACAUUCGAUCUG [Fam1A.1 aminoacylation ribozyme variant] | 0.731 | 0.62 | 0.561 | 0.645 | 0.44 | 0.593
CCAGACUUCAAGCAAUCGGUA [Fam1B.1 aminoacylation ribozyme variant] | 1.4 | 1.22 | 1.16 | 1.41 | 1.75 | 1.66
